Measured values from article PMC10457294 (Nature Communications, 2023).

B1: VACV M2 (vaccinia virus M2), recombinant, His-tagged (natural protein)
chain: VEYKNTICPPRQDYRYWYFAAELTIGVNYDINSTIIGECHMSESYIDRNANIVLTGYGLEINMTIMDTDQRFVAAAEGVGKDNKLSVLLFTTQRLDKVHHNISVTITCMEMNCGTTKYDSDLPESIHKSSSCDITINGSCVTCVNLETDPTKINPHYLHPKDKYLYHNSEYGMRGSYGVTFIDELNQCLLDIKELSYDICYRE
B2: human B7.1 ectodomain fused to human Fc (Fc fusion, UniProt P33681-1 35-234, looked up)
chain: VIHVTKEVKEVATLSCGHNVSVEELAQTRIYWQKEKKMVLTMMSGDMNIWPEYKNRTIFDITNNLSIVILALRPSDEGTYECVVLKYEKDAFKREHLAEVTLSVKADFPTPSISDFEIPTSNIRRIICSTSGGFPEPHLSWLENGEELNAINTTVSQDPETELYAVSSKLDFNMTTNHSFMCLIKYGHLRVNQTFNWNTT
notes: also called hB7.1-Fc; hB7.1-hFc; not shown: Fc (human), C-terminal, kept

Assays:
[1] = molecular target: T1, human B7.2 ectodomain fused to human Fc (human, UniProt P42081-1 26-238); assay: far-Western, overlay or dot blot; conditions: both partners purified
T1 construct: also called hB7.2-Fc; hB7.2-hFc; not shown: Fc (human), C-terminal, kept
T1 sequence (looked up): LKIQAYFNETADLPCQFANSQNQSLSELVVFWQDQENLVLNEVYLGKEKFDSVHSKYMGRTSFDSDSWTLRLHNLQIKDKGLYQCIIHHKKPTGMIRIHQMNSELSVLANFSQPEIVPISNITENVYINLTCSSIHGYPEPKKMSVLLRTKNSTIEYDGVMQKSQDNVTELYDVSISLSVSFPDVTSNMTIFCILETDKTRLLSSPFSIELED

[2] = molecular target: the molecule itself; assay: non-reducing against reducing SDS-PAGE
[3] = molecular target: B1; assay: far-Western, overlay or dot blot; conditions: both partners purified

Row | Binder | binding result [1] | binding result [2] | binding result [3]
1 | B1 | binds | binds | 
2 | B2 |  |  | binds
